Assay results published in patent publication US8563695B2, “Antibodies that bind β2” (Genentech, Inc., priority 2007, dated 2013).
One block for each molecule: values may come before it.

Columns and labels:
SW620 cells [1] = test: Chemical inhibition of Notch signaling: E-cadherin staining of β2 ECD-treated SW620 cells; format: cell-based, human
Experimental: Vimentin and actin cytoskeleton (rhodamine-phalloidin): cells were fixed in 4% paraformaldehyde for 20 minutes at room temperature and permeabilzed with 0.05% saponin for 5 minutes at room temperature. For β2, REST, cleaved-Notch1 NICD and E-cadherin staining: cells were fixed in methanol at 4° C. for 2 minutes. Primary antibody incubation was at room temperature for 1 hour (for vimentin staining), or for 15 minutes (for rhodamine-phalloidin staining) or at 37° C. for 1 hour (for β2, REST, cleaved-Notch1 NICD and E-cadherin staining). Secondary antibody incubation was at room temperature for 30 minutes. […]
Images were converted from Photoshop format to Tif in Photoshop CS2 (version 9.0.2, Adobe; San Jose, Calif.). […] Typically, 5 independent regions were analyzed and combined for each analysis.
Activation of Notch signaling requires cleavage of the receptor by both an ADAM protease and gamma-secretase to release the Notch intracellular domain (NICD). […] SW620 cells were mixed with DMSO (vehicle control) or the specific gamma-secretase inhibitor DAPT (N—[N-(3,5-difluorophenylacetyl-L-alanine)]-S-phenylglycine t-butylester) at 500 nM in DMSO, treated with β2 ECD in conditioned media, and analyzed for loss of E-cadherin. […]

SW620 cells [2] = test: Stimulation of SW620 cells with Notch ligands (co-culture or plate-bound) for EMT induction; format: cell-based, human; settings: exogenous ligand in trans by co-culture or plate-bound; data not shown
[3] = system: naïve CHO cells, MDCK cells, HUVEC (endothelial), or tumor cell lines NCI-H226, SW620, SW480, and PC-3; test: β2 ECD induced phenotype assay (actin cytoskeleton, morphology); format: cell-based; settings: conditioned media containing β2 ECD, 48-72 hours
Experimental: (§1) Vimentin and actin cytoskeleton (rhodamine-phalloidin): cells were fixed in 4% paraformaldehyde for 20 minutes at room temperature and permeabilzed with 0.05% saponin for 5 minutes at room temperature. For β2, REST, cleaved-Notch1 NICD and E-cadherin staining: cells were fixed in methanol at 4° C. for 2 minutes. Primary antibody incubation was at room temperature for 1 hour (for vimentin staining), or for 15 minutes (for rhodamine-phalloidin staining) or at 37° C. for 1 hour (for β2, REST, cleaved-Notch1 NICD and E-cadherin staining). Secondary antibody incubation was at room temperature for 30 minutes. Antibodies used were as following: α-ankyrin monoclonal antibody (Chemincon International, Temecula, Calif.); α-vimentin monoclonal antibody (Sigma-Aldrich, St. Louis, Mo.); rhodamine-phalloidin (Molecular Probes, Eugene, Oreg.), α-REST polyclonal antibody (Upstate, Lake Placid, N.Y.), α-E-cadherin monoclonal antibody (Invitrogen, Carlsbad, Calif.), α-Notch1 (Val1744 peptide, detects both intact and cleaved Notch1 NICD) (Cell Signaling, Danvers, Mass.) or α-β2 monoclonal antibody (Genentech, Inc.). Secondary antibodies were as follows: Cy3-conjugated rabbit α-mouse IgG or Cy3-conjugated donkey α-rabbit IgG (Jackson Lab, Bar Harbor, Me.). Slides were mounted with Vectashield mounting media with DAPI (4′,6-diamidino-2-phenylindole) (Vector Lab, Burlingame, Calif.). […]

HEK293 cells = test: β2 ECD induced phenotype assay in HEK293; format: cell-based; settings: HEK293, do not express Notch1; FIG. 11A
Experimental: as §1

SW620 cells [4] = test: Migration assay of SW620 cells treated with β2 ECD; format: cell-based, human; settings: β2 ECD in conditioned media, 0.1% FBS, 18 hours; p=0.0009
Experimental: Migration assays were performed using the HTS FluoroBlock Multiwell insert system with […] (BD Biosciences, Bedford, Mass.). 10^5 cells/well were seeded into the upper wells and FBS was added to the bottom wells. After 18 hr, cells that migrated to the other side of the trans-well membrane were stained in 10 um YO-PRO-1 iodide (Invitrogen, Eugene, Oreg.) and quantitated using the fluorescence plate reader Spectra Max GeminiEM (Molecular Devices, Sunnyvale, Calif.).

CHO cells = test: Methotrexate resistance in CHO cells (trypan blue); format: cell-based, Chinese Hamster; settings: 200 nM methotrexate for 48 hours; 60% of control-treated cells died; p=0.01
Experimental: Resistance to starvation: SW620 cells were seeded into 6 well plates at 25% confluence in complete media overnight. This media was replaced the next morning with media lacking FBS. For the assay, cells were detached using trypsin, washed, and stained in 0.4% Trypan Blue (Invitrogen, Carlsbad, Calif.). Total cells and dead cells were counted using a hemocytometer. Assays were performed in triplicate. Doxorubicin resistance: 2×10^4 SW620 cells were seeded in 96 well clear bottom black plates (Corning Inc., Corning, N.Y.) with serial dilutions of doxorubicin hydrochloride (Sigma-Aldrich, St. Louis, Mo.) and incubated for 5 days. Cell viability was measured by using Cell Titer Glo Luminescent Cell Viability Kit (Promega, Madison, Wis.). Luminescence was quantified using an Envision 2103 multilabel reader (PerkinElmer, Finland). Methotrexate resistance: 5×10^5 CHO cells were seeded in 6-well plates with β2 ECD in conditioned medium or control conditioned medium containing 200 nm methotrexate (Genentech Inc.). Cells were detached from the plate and stained with Trypan Blue 0.4% (Invitrogen, Carlsbad, Calif.) as described.

SW620 cells [5] = test: E-cadherin and vimentin staining of SW620 cells treated with β2 ECD; format: cell-based, human
Experimental: as §1

[6] = system: Twist1 and HES1 transcript; test: Transcript expression (microarray, RT-PCR) in SW620 cells treated with β2 ECD; format: cell-based, human
Experimental: HES1 and Twist1 transcript expression from 0-72 hours in SW620 cells treated β2 ECD in conditioned medium. RNA was extracted from cells at 0, 6, 18, 24, 48, and 72 hour timepoints and microarray analysis performed on Agilent Whole Human Genome microarrays versus a universal reference RNA. Log ratio (Y-axis) is plotted against time in hours (X-axis). Transcript data for 2 independent HES1 oligonucleotide probe sequences and for Twist1 are shown.
RT-PCR analysis of Twist1 transcript expression at 0, 6, and 18 hr timepoints in SW620 cells treated with β2 ECD. Twist1 expression was normalized to housekeeping gene RPL19.

[7] = biological target: T1, Notch1 ECD (EGF repeats 6-36) (Homo sapiens, UniProt P46531); test: Direct binding of β2 ECD and Notch1 ECD (Ni-NTA pull-down, immunoblot); settings: approximately 1 nM Notch1 ECD and 20 nM β2 ECD; vs control conditioned media with irrelevant histidine-tagged protein
T1 construct: Notch1 ECD region containing the majority of the EGF repeat region (repeats 6-36); FLAG (C)
Experimental: Immunoprecipitation: cells were removed from culture plates using 5 mm EDTA and lysed in TBS buffer containing 0.5% NP-40, EDTA-free protease inhibitor (Roche Diagnostics, Indianapolis, Ind.) and 1 mm PMSF. The cell lysate was incubated with pre-saturated protein G-agarose (Roche Diagnostics, Indianapolis, Ind.) at 4° C. for 1.5 hour followed by incubation with α-β2 monoclonal antibody at 4° C. for 2 hours. This cell lysate and antibody mixture was then incubated with pre-saturated protein G-agarose at 4° C. overnight. The agarose was collected and proteins were eluted in Tris-Glycine gel loading buffer (Invitrogen, Carlsbad, Calif.) for immunoblot analysis. Direct binding: conditioned media was collected as described above, incubated with FLAG-tagged Notch1 ECD:6-36 (5 μg) in 15 ml for 2 hours at room temperature with shaking 50 μl of Ni-NTA agarose bead slurry (Qiagen) was added with incubation for 2 hours at room temperature with shaking. Ni-NTA beads were collected by centrifugation and washed 3 times with PBS. Alternatively, conditioned media was treated with Ni-NTA beads to enrich for β2 and the resulting slurry incubated with Notch1 ECD:6-36 (5 μg) in 1 ml PBS and incubated and washed as described. Samples were eluted into 2× loading buffer. […]

[8] = biological target: T2, Notch1 ECD fragment containing EGF repeats 10-21 (Homo sapiens, UniProt P46531); test: Direct binding of β2 ECD and Notch1 ECD fragment EGF 10-21; settings: α-FLAG immunoblot
T2 construct: purified fragments of the Notch1 ECD, containing either EGF repeats 10-21 or 22-33; FLAG (C)

[9] = biological target: T3, Notch1 ECD fragment containing EGF repeats 22-33 (Homo sapiens, UniProt P46531); test: Direct binding of β2 ECD and Notch1 ECD fragment EGF 22-33; settings: α-FLAG immunoblot
T3 construct: purified fragments of the Notch1 ECD, containing either EGF repeats 10-21 or 22-33; FLAG (C)

Notch1 NICD = test: Translocation of Notch1 NICD to nucleus (confocal immunofluorescence); format: cell-based, human; settings: SW620 cells 6 hours after treatment with β2 ECD in conditioned media; 100 um Lactacystin
Experimental: as §1, with “Inc.).” for “Inc.). Secondary antibodies were as follows: Cy3-conjugated rabbit α-mouse IgG or Cy3-conjugated donkey α-rabbit IgG (Jackson Lab, Bar Harbor, Me.). Slides were mounted with Vectashield mounting media with DAPI (4′,6-diamidino-2-phenylindole) (Vector Lab, Burlingame, Calif.).”
Activation of Notch1 by ligands results in cleavage to release the NICD, which translocates to the nucleus, and in concert with other proteins, directly regulates Notch target gene transcription. We analyzed whether nuclear NICD could be detected in cells in response to β2. […]

T1 sequence (P46531 218-1426 limits assumed): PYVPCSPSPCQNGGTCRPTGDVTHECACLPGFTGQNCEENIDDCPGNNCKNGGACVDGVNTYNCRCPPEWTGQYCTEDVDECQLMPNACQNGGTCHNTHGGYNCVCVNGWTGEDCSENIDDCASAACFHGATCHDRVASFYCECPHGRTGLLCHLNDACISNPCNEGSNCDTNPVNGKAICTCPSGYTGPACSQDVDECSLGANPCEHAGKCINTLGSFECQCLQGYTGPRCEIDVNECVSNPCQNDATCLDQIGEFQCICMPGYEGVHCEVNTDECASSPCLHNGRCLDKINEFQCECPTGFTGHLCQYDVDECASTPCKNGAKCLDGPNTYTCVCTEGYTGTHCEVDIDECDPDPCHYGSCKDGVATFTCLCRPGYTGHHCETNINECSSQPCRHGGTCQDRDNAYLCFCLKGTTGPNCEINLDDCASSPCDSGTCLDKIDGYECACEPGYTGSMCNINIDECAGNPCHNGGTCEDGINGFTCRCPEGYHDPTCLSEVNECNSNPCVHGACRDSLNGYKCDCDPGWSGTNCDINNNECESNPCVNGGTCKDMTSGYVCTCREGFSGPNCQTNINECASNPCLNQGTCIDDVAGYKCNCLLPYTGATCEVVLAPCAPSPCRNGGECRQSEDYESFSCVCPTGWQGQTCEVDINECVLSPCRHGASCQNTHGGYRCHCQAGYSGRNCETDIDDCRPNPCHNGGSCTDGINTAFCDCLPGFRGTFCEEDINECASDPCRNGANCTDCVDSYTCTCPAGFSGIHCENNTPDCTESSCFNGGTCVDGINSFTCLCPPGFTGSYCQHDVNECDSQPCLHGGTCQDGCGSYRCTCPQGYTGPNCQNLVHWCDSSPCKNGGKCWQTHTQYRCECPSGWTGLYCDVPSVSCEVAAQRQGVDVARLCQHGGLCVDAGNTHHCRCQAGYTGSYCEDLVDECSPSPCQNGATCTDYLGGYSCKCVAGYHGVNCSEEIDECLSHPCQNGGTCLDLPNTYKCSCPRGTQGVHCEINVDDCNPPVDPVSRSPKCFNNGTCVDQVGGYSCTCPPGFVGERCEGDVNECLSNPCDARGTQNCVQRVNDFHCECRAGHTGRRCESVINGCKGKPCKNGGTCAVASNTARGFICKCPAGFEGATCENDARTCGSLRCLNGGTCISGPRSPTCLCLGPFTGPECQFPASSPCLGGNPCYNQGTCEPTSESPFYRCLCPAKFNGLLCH
T3 sequence (P46531 829-1305): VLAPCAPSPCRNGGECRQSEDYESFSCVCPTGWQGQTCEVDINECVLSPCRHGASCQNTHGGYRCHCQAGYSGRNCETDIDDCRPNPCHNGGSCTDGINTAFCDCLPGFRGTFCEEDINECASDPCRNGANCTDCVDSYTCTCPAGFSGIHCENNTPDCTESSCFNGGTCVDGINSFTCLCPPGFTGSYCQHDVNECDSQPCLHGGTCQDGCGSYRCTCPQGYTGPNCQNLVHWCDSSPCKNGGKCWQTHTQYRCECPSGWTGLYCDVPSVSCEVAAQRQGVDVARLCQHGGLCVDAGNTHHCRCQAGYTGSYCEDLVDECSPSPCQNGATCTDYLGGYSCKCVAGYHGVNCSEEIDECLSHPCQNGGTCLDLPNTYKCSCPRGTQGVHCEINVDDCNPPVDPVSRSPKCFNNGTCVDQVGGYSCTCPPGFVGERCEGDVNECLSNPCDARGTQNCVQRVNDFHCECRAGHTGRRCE
T2 sequence (P46531 372-827 limits assumed): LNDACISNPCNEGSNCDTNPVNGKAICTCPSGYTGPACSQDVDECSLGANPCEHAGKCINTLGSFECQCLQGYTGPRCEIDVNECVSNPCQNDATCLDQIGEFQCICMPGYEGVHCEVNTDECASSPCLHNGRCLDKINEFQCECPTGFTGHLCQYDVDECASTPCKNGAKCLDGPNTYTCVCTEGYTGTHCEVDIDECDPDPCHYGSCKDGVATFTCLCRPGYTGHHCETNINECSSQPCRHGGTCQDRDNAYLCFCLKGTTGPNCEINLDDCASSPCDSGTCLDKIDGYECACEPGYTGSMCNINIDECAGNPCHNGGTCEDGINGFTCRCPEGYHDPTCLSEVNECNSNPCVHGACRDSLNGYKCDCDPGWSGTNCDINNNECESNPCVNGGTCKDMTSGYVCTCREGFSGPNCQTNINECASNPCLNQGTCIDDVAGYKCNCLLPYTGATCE

Molecule: C[C@H](NC(=O)Cc1cc(F)cc(F)c1)C(=O)NC(C(=O)OC(C)(C)C)c1ccccc1 (stereo partly drawn) [DAPT, N—[N-(3,5-difluorophenylacetyl-L-alanine)]-S-phenylglycine t-butylester]
- E-cadherin staining (SW620 cells [1]; DAPT 500 nM in DMSO, SW620 cells treated with β2 ECD in conditioned media): remained E-cadherin positive
- E-cadherin levels, quantitative analysis of staining (SW620 cells [1]; DAPT-treated vs DMSO, β2-ECD treated cells, p=0.00001): significantly different

Molecule: Jagged1: Notch ligand of the Jagged family, added exogenously (co-culture or plate-bound)
- Induction of EMT or related morphological change (SW620 cells [2]): no evidence of induction of EMT or related morphological change

- Binding to FLAG-tagged Notch1 ECD (repeats 6-36) [7]: recovery of tagged Notch1
- Binding to Notch1 ECD fragment EGF repeats 10-21 [8]: specifically bound
- Binding to Notch1 ECD fragment EGF repeats 22-33 [9]: no detectable binding
B1: β2 ECD: C-terminal polyhistidine-tagged (HIS8) extracellular domain of β2 (SCN2B) secreted from CHO cells, used in conditioned media (protein)
chain: MEVTVPATLNVLNGSDARLPCTFNSCYTVNHKQFSLNWTYQECNNCSEEMFLQFRMKIINLKLERFQDRVEFSGNPSKYDVSVMLRNVQPEDEGIYNCYIMNPPDRHRGHGKIHLQVLMEEPPERDSTVAHHHHHHHH
- Phenotypic changes (elongation, enlargement, actin cytoskeleton remodeling) [3]: capable of inducing phenotypic changes
- Phenotypic change in response to β2 (HEK293 cells): no phenotypic change
- Migration of SW620 cells across transwell membrane (SW620 cells [4]): significant increase in migration
- Cell death as percentage of total cells (CHO cells): 10%
- E-cadherin protein levels (immunofluoresence and FACS) (SW620 cells [5]; β2 ECD in conditioned media for 48 hours): greatly reduced E-cadherin protein levels
- Vimentin protein expression (immunofluorescent staining) (SW620 cells [5]; β2 ECD in conditioned media, from otherwise undetectable levels): substantial increase in vimentin protein expression
- Twist1 transcript expression ([6]; 6 hours after treatment with β2 ECD, oscillating at subsequent timepoints): induction of Twist1 transcript
- HES1 transcript expression ([6]; at 6 hours after β2 ECD in conditioned media): elevated HES1 transcript
- Nuclear Notch1 NICD staining (Notch1 NICD): nuclear NICD was detected
